# Data published in PMC3439888 (Nucleic Acids Research, 2012).
# Molecular target: the molecule itself
# Experiment: SEC
protein,measurement,value
Lac repressor (natural protein) MKPVTLYDVAEYAGVSYQTVSRVVNQASHVSAKTREKVEAAMAELNYIPNRVAQQLAGKQSLLIGVATSSLALHAPSQIVAAIKSRADQLGASVVVSMVERSGVEACKAAVHNLLAQRVSGLIINYPLDDQDAIAVEAACTNVPALFLDVSDQTPINSIIFSHEDGTRLGVEHLVALGHQQIALLAGPLSSVSARLRLAGWHKYLTRNQIQPIAEREGDWSAMSGFQQTMQMLNEGIVPTAMLVANDQMALGAMRAITESGLRVGADISVVGYDDTEDSSCYIPPLTTIKQDFRLLGQTSVDRLLQLSQGQAVKGNQLLPVSLVKRKTTLAPNTQTASPRALADSLMQLARQVSRLESGQ,stoichiometry N,4
